Experimental data reported in PMC3792046 (PLoS ONE, 2013).

Assays:
SB105-A10-PEG-biotin = assay: SPR; BIAcore X100; biotinylated SB105-A10 immobilised on SA streptavidin sensorchip (560 RU, 0,12 pmol/mm^2); gp41 (0.61-10 nM) or gp120 (12.5-100 nM) injected in HBS-EP (10 mM HEPES pH 7.4, 150 mM NaCl, 3 mM EDTA, 0.005% surfactant P20), 3 min association, 10 min wash; streptavidin-alone surface for blank subtraction; steady-state affinity from RU at equilibrium
gp120 = details: ref [71], [72]; cited from earlier work

Substance	Kd (SB105-A10-PEG-biotin) [nM]	recognition of positively charged regions on gp120 (gp120)
HIV-1 glycosilated recombinant gp41 ectodomain (amino acids 546-682) (from UniProt P04578 546-682) (domain or fragment)	3.9	–
cellulose sulfate	–	recognize positively charged regions on gp120
